Measurements published in patent US20240180969A1 (published 2024).

Biological target: T1, peptide on HLA-A*11:01 (human)
T1 peptide: VVVGAVGVGK
Assay: activation reporter or marker
Experimental: Jurkat NFAT-Luciferase effector cells (JNL) cells were transfected on day 1 with TCR or CAR constructs using standard protocols for the Neon™ transfection system (ThermoFisher MPK5000). T2 HLA-A*11 target cells were loaded with peptide […] (SEQ ID NO: 110). Peptides were resuspended in DMSO, and serially-diluted 20 times, 3× per dilution. Serially diluted peptide solutions were added to T2 HLA-A*11 cells resuspended in peptide-loading media (RPMI 1640+1% BSA+1×P/S). This yielded peptide-loaded T2 HLA-A*11 cells at approximately ˜0.67E6/mL, with peptide concentrations ranging from ˜10 fM to 100 μM, including a control at 0 μM. Peptide-loaded T2 HLA-A*11 cells were incubated overnight at 37° C. in 384-well plates, plated at 10,000 cells per well (Corning 3570). On day 2, transfected JNL cells (10,000 cells/well) were added to the peptide-loaded T2 HLA-A*11 cells to a final volume of 30 μL. After a 6-hour incubation at 37° C., the One-Step™ Luciferase assay system (Firefly luciferase, BPS Bioscience, 60690) was used to determine luminescence intensity on a Tecan Infinite® M1000.

B1: Positive Control TCR (TRAV3-3*01/TRBV4*01) (TCR, V domains shown)
Valpha: GEQVEQRPPHLSVREGDSAVITCTYTDPNSYYFFWYKQEPGASLQLLMKVFSSTEINEGQGFTVLLNKKDKRLSLNLTAAHPGDSAAYFCAVSGGTNSAGNKLTFGIGTRVLVRP
Vbeta: ETAVFQTPNYHVTQVGNEVSFNCKQTLGHDTMYWYKQDSKKLLKIMFSYNNKQLIVNETVPRRFSPQSSDKAHLNLRIKSVEPEDSAVYLCASSRDWGPAEQFFGPGTRLTVL
**Q.** Does B1 bind?
**A.** Result: recognises
